Our source for the stoichiometry N values is publication doi:10.1101/2021.11.17.468963.

Usually stoichiometry N stands for a count of units in the complex or per binding partner.

For this assay, the target named is human glyceraldehyde 3-phosphate dehydrogenase (GAPDH) (human) (UniProt P04406). The experiment in a line: cryo-EM structure.

Sequence of human glyceraldehyde 3-phosphate dehydrogenase (GAPDH), P04406 1-335 (enzyme; other documents disagree on this pair) (P04406 whole entry): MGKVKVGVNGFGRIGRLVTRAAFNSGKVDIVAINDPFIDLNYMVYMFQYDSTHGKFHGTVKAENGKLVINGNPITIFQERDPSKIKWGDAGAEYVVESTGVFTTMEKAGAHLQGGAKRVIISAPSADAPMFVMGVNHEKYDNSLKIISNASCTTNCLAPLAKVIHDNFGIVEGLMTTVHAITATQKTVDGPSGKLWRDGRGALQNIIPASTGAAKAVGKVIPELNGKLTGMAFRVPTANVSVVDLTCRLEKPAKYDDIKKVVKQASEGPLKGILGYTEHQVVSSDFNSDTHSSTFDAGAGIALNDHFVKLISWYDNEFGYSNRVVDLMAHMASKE

The substance “human glyceraldehyde 3-phosphate dehydrogenase (GAPDH), P04406 1-335 (enzyme; other documents disagree on this pair)” had a stoichiometry N of 4.
